Laboratory results taken from article PMC6504953, “Cauliflower mosaic virus transactivator protein (TAV) can suppress nonsense-mediated decay by targeting VARICOSE, a scaffold protein of the decapping complex” (Scientific Reports, 2019).

Target: T1, Cauliflower mosaic virus translation transactivator/viroplasmin (TAV), strain CM1841, fused to the Gal4 … (Cauliflower mosaic virus (strain CM1841), UniProt P03558 1-520)
T1 sequence: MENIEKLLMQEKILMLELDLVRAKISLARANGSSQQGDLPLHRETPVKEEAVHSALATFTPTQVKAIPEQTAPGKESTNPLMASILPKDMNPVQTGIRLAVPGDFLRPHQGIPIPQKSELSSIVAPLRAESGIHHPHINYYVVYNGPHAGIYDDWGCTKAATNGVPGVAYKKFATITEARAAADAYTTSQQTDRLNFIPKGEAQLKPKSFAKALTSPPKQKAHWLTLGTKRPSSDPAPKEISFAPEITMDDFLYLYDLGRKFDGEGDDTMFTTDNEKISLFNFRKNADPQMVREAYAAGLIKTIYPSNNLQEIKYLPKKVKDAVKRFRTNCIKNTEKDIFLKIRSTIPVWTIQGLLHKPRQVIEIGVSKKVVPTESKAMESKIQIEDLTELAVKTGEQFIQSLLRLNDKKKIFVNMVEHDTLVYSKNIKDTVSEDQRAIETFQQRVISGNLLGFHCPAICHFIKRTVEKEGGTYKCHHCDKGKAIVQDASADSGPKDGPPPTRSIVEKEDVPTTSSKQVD
Assay: cell-based or functional assay

B1: VARICOSE (VCS), entire protein, fused to the Gal4 activation domain (natural protein, A. thaliana, UniProt Q9LTT8 1-1344, looked up)
chain: MASSPGNTNPHNTPPFDLGILFKPSSNPYPPPAASYPPPTGPFLHNQYDQQHYAPPGISAQPSPVTQQQQDVSSSSAATNLHPQRTLSYPTPPLNLQSPRSNHNPGTHILALLNNTNNGAPVANQEPSHQLPVVNHNEIARSFPGGSGPIRVPSCKLPKGRRLIGEHAVYDVDVRLQGEIQPQLEVTPITKYGSDPQLVVGRQIAVNKVYICYGLKGGNIRVLNINTALRSLFRGHSQRVTDMAFFAEDVDMLASVSLDGKVFVWKISEGSEGEDQPQITGKIVLALQILGEEDTKHPRVCWHCHKQEILVVSIGKHVLRIDTTKVGRGEVFSAEAPLQCPLDKLIDGVQIVGKHDGEVTDLSMCQWMTTRLVSSSVDGTIKIWQDRKAQPLVVLRPHDGHPVSSATFVTSPERPDHIILITGGPLNREMKIWVSAGEEGWLLPADAESWRCTQTLDLKSSTEPRAEEAFFNQVIALSEAGLLLLANAKRNALYAVHLDYGSSPVGTRMDYLSEFTVTMPILSFIGTNDPPEEPIVKVYCVQTLAIQQYTLDLCLCLPPPIENMGLEKSDSSVSREANLVEGMSEPSGLKPTDLPSVDSVPKPSIIVNRSESANKLSFPSAEATSQAIVPPNGEPKTSGLPSQTSGAGSAYATLPQLPLSPRLSSKLSGYHTPVEAIEPVIPHHELGGKTPSADYSVDRQMDAVGERNLDVSSVEEISRSKDSNVTPDDDVSGMRSPSAFFKHPTHLVTPSEILMGVSSAEASITTEDRRDRDANIQDVNNDPRDTEVEVKEISEARSTQNGEINDHDETENCTSENREKVFCSQVSNLSTEMARDCYPSTEGTFIPGESKAYGQPIKAGDESGVDSRGGPAKLLKGKKQKAKNSQGPGLSSTSSNVANLADSFNEQSQSLSHPMTDLLPQLLAMQETMNQVMASQKEMQRQLSNAATGPIGKESKRLEVALGRMIEKSSKSNADALWARIQEETVKNEKALRDHAQQIVNATTNFMSKELNAMFEKTIKKELAAIGPALARSVVPVIEKTVSSAITESFQRGIGDKAVNQLDKSVNIKLEATVARQIQAQFQTSGKQALQEGLRSSVESSVIPSFEKACKAMFDQIDSAFQKGIAEHTNAAQQRFDSGHSQLAHTLKESITSASSVAQALSRELAETQRNLLALAAAGANSGGSNSLVTQLSGGPLGALLEKVEAPMDPTTELSRLISERKYEESFTSALQRSDVSIVSWLCSQVDLRGLLAMNPLPLSQGVLLSLLQQLACDISKDTSRKLAWMTDVVAAINPSDQMIAVHARPIFEQVYQILHHHRNAPGSDVSAIRLIMHVINSMLMGCK
For B1, the “GFPabc mRNA level by qRT-PCR in N. benthamiana leaves co-infiltrated with pGFPabc, pVCS and pTAV against pTAV alone” value was 3 fold.
